# Experimental data published in patent publication US20230340055A1 (published 2023).
# T1: IL-2-Rα/β/γ on the murine CTLL-2 T lymphocyte cell line (murine, UniProt P01590 22-268; P16297 27-539; P34902 23-369)
# T1 sequence (looked up) 1: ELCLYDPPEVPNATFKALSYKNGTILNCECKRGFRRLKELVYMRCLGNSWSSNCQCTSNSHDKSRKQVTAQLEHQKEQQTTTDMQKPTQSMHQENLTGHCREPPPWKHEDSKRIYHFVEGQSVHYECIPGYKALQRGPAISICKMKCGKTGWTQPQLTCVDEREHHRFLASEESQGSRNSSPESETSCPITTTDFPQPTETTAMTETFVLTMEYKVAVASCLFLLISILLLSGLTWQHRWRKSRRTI
# T1 sequence (looked up) 2: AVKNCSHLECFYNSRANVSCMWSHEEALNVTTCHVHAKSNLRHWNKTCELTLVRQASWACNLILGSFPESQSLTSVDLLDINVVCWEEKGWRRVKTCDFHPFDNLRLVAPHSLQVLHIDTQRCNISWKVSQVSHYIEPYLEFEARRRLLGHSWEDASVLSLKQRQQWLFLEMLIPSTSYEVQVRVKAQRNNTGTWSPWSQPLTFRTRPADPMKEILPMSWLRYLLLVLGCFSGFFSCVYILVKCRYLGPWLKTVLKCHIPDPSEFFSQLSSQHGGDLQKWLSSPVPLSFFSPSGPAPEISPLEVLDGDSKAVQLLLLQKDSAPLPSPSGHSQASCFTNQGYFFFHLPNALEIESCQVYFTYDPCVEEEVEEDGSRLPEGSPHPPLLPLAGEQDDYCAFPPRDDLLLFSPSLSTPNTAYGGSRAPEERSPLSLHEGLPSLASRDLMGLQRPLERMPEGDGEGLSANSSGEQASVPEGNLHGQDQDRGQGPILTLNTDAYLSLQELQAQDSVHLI
# T1 sequence (looked up) 3: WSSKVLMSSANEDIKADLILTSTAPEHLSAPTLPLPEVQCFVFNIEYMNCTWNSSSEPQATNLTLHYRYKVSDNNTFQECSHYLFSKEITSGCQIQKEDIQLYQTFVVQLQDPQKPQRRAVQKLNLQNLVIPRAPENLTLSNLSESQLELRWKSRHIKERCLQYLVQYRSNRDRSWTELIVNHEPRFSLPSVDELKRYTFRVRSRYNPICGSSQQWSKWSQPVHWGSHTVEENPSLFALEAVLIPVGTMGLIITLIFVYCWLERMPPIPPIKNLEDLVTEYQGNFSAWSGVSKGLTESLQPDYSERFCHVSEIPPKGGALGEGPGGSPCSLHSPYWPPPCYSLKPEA
# T2: IL-2Rαβγ (trimeric high-affinity IL-2 receptor), human, on cells (human, UniProt P01589 22-272; P14784 27-551; P31785 23-369)
# T2 sequence (looked up) 1: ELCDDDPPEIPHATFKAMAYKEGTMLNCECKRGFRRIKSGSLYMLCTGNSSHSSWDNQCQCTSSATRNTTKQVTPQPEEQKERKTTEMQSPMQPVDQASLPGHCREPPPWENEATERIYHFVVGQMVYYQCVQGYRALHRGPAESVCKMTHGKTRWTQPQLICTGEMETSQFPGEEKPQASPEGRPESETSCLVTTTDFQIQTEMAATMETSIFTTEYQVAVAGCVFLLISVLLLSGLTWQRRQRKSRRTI
# T2 sequence (looked up) 2: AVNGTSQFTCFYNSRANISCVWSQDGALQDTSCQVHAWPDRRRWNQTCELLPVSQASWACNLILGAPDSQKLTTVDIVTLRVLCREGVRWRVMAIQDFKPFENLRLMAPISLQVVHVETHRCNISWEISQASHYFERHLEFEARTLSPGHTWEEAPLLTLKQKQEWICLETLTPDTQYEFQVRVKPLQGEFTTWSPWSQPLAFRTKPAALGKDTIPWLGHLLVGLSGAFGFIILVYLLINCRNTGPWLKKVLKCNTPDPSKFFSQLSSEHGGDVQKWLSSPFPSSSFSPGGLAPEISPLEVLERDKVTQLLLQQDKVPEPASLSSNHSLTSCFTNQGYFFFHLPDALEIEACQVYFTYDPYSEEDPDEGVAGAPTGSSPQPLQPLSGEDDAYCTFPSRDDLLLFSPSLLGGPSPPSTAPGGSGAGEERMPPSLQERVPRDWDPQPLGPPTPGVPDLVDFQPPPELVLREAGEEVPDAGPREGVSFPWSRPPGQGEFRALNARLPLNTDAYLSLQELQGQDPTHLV
# T2 sequence (looked up) 3: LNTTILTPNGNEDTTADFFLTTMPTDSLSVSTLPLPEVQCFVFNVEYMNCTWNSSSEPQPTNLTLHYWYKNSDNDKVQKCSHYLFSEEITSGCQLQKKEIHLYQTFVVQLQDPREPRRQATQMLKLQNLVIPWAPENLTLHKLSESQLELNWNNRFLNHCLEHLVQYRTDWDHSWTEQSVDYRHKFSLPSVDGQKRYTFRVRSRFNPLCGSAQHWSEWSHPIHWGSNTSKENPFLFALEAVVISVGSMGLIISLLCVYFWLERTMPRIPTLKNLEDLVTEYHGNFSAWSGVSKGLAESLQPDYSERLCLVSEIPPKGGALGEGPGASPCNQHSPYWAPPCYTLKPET
# B1: protein 6 (ligand)
# chain: APTSSSTKKTQLQLEHLLLDLQMILNGINNYKNPKLTFGNSTKFYMPKKATELKHLQCLEEELKPLEEVLNLAQSKNFHLRPRDLISNINVIVLELKGSETTFMCEYADETATIVEFLNRWITFSQSIISTLT
# modifications: glycosylated (same sequence with the N-glycosylation motif FGNST as protein 1f); glycan sites not analysed separately for protein 6
# Assays:
# Assay in all cases: cell-based or functional assay
# [1] = molecular target: T1, IL-2-Rα/β/γ on the murine CTLL-2 T …
# [2] = molecular target: T2, IL-2Rαβγ (trimeric high-affinity IL-2 …)
# [3] = molecular target: T1, IL-2-Rα/β/γ on the murine CTLL-2 T …; remark: listed apart in the source
binder,measurement,setting,value
B1,ratio of Ratio protein 6 to Ratio protein 5a (EC50 CTLL-2 cells / EC50 HH cells),[1],> 250
same,"fold lower potency than 1d, pSTAT5, Tregs (human PBMCs)",[2],~1900 fold
same,"EC50 CTLL-2, STAT5 phosphorylation",[3],3.39 µg/mL
same,Ratio (E50 CTLL-2 cells/EC50 HH cell),[3],35.1
